Molecular target: RNA polymerase II (RNAPII) (human (endogenous in HepG2)) (UniProt P24928)
Assay: co-sedimentation; HepG2 cell lysate on a 10-40% glycerol gradient in NP-40 lysis buffer (50 mM HEPES pH 7.5, 100 mM NaCl), 50,000 rpm for 11 h at 4°C; fractions detected by Western blotting

percent of RBM22 linked with RNAPII: 40%
Substance: RBM22 (endogenous) (from UniProt Q9NW64 1-420) (natural protein)
